Paper PMC12328635

T1: SC35 (GST-SC35) (Populus tomentosa, UniProt A0AAD6QWB7 1-302)
T1 sequence: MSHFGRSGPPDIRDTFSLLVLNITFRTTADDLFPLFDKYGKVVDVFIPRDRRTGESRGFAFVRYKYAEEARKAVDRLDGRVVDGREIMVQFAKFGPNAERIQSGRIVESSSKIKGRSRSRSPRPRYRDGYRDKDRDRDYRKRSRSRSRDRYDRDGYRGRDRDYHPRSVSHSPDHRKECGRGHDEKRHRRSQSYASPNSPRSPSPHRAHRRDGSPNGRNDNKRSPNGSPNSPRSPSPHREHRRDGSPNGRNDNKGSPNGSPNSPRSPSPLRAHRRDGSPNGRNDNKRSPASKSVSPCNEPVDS

B1: Probe1 (ssRNA)
RNA: CAUUAUGUUGAGGAAUUAGAAGAUAAGGUG
B2: Probe2 (ssRNA)
RNA: UUAGAGAGAGUGGAAUUAGUGGGUUUGGUU
B3: Mutation-Probe1 (ssRNA)
RNA: CAUUAUGUUGACCUUAAUCAAGAUAAGGUG
B4: Mutation-Probe2 (ssRNA)
RNA: UUAGAGAGAGUCCUUAAUCUGGGUUUGGUU

Biological target: T1, SC35 (GST-SC35)
Experiment: EMSA

Binder | binding result
B1 | binds
B2 | binds
B3 | no binding
B4 | no binding
